Results: publication PMC7140980
Like-named read-outs stand apart in the source and are kept apart here.

Assays:
Test in all cases: transient-state stopped-flow spectrofluorometry
[1] = biological target: L47fUAA GCK (human pancreatic glucokinase with L-(7-hydroxycoumarin-4-yl)ethylglycine in place of Leu47) (human) (UniProt P35557)
[2] = biological target: L47fUAA GCK (human pancreatic glucokinase with L-(7-hydroxycoumarin-4-yl)ethylglycine in place of Leu47) (human) (UniProt P35557); remark: listed apart in the source
[3] = biological target: L47fUAA GCK (human pancreatic glucokinase with L-(7-hydroxycoumarin-4-yl)ethylglycine in place of Leu47) (human) (UniProt P35557); remark: listed apart in the source

For “glucokinase regulatory protein (GKRP) (from UniProt Q14397 1-625) (natural protein)”, the K2 (step 2, equilibrium constant of isomerisation) [1] was 0.51, the Kd [1] was 21000 nM and the Kd,intrinsic (step 1, encounter complex) [1] was 32000 nM. It also gave a k1 (step 1, formation of the encounter complex) [1] of 64000 M⁻¹ s⁻¹, a k−1 (step 1, dissociation of the encounter complex) [1] of 2.06 s⁻¹ and a k−2 (step 2, isomerisation reverse) [1] of 0.21 s⁻¹. The Kd [2] was 124 nM, the K2 (step 2, equilibrium constant of isomerisation) [3] was 0.72 and the Kd [3] was 123 nM. The Kd,intrinsic (step 1, encounter complex) [3] was 210 nM, the k1 (step 1, formation of the encounter complex) [3] was 170000 M⁻¹ s⁻¹ and the k−1 (step 1, dissociation of the encounter complex) [3] was 0.036 s⁻¹. The k−2 (step 2, isomerisation reverse) [3] was 0.36 s⁻¹.
